Patent US20040235732A1, “Method for modulating angiogenesis using prokineticin receptor antagonists” (published 2004)

T1: human prokineticin receptor 1 (PKR1) (human)
T1 chain: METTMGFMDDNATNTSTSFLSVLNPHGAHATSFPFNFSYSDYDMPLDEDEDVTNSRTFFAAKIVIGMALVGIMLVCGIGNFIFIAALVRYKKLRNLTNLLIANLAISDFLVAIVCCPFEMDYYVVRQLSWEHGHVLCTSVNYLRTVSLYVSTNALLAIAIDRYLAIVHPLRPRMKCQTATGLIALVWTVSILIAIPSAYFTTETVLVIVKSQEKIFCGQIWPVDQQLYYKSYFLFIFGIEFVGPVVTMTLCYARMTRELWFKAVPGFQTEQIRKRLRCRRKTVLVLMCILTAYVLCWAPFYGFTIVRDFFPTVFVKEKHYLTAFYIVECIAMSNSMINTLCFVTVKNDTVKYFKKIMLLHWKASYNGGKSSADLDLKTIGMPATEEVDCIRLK

B1: Met PK1 (ligand)
chain: MAVITGACERDVQCGAGTCCAISLWLRGLRMCTPLGREGEECHPGSHKVPFFRKRKHHTCPCLPNLLCSRFPDGRYRCSMDLKNINF
B2: MV PK1 (ligand)
chain: MVITGACERDVQCGAGTCCAISLWLRGLRMCTPLGREGEECHPGSHKVPFFRKRKHHTCPCLPNLLCSRFPDGRYRCSMDLKNINF

Key:
Assay in all cases: cell-based or functional assay
[1] = biological target: human prokineticin receptor 2 (PKR2) (human)
[2] = biological target: T1, human prokineticin receptor 1 (PKR1)
[3] = biological target: human prokineticin receptor 2 (PKR2) (human); remark: listed apart in the source
[4] = biological target: T1, human prokineticin receptor 1 (PKR1)

human prokineticin receptor 2 (PKR2) (human), sequence (chain, as listed by the source): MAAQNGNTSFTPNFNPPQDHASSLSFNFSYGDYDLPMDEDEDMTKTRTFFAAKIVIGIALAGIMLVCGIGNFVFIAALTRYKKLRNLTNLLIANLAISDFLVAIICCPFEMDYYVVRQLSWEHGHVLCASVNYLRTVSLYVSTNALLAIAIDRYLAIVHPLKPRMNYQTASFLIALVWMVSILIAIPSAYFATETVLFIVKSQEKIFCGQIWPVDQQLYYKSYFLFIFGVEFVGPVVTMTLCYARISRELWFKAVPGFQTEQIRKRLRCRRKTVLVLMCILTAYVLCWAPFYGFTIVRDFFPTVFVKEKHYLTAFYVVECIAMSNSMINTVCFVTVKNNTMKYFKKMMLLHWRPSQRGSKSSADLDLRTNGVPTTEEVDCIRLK

Binder	dissociation constant (Kb), Schild analysis of calcium mobilization [1] [nM]	dissociation constant (Kb), Schild analysis of calcium mobilization [2] [nM]	Antagonistic Activity of PK mutants (Calcium Mobilization Assay), nM; ligand PK1 [3] [nM]	Antagonistic Activity of PK mutants (Calcium Mobilization Assay), nM; ligand PK2 [3] [nM]	Antagonistic Activity of PK mutants (Calcium Mobilization Assay), nM; ligand PK1 [4] [nM]	Antagonistic Activity of PK mutants (Calcium Mobilization Assay), nM; ligand PK2 [4] [nM]
B1	48.9	261	15	30	9	90
B2	37.8	116	16	29	6	110
